In paper PMC10786891, “Massively parallel profiling of RNA-targeting CRISPR-Cas13d” one finds Kd data, which are given here for 27 molecules.

What is called Kd is the free concentration of one partner at which half of the binding sites on the other are occupied at equilibrium, for simple one-to-one binding. The low end stands for higher affinity, the high end for lower affinity.

The chains are these.
B1: target 1 C2G,G13C (mixed)
RNA 1: CACCCGUGCAAAAAUGCAGGGGUCUAAAACUGAGCGGAUAACCUCUCUAUGG
RNA 2: GGGAAUGGAUCCACAUCUACGAAUUCGUACCAUAGAGACGUUAUCCGCUGACCGAGAUCGGAAGAGCACACGU
B2: target 1 MT 5'PFS GGA 3'PFS CUC (mixed)
RNA 1: CACCCGUGCAAAAAUGCAGGGGUCUAAAACUGAGCGGAUAACCUCUCUAUGG
RNA 2: GGGAAUGGAUCCACAUCUACGAAUUCGGACCAUAGAGAGGUUAUCCGCUCACUCAGAUCGGAAGAGCACACGU
B3: target 1 MT 5'PFS CCU 3'PFS AAU (mixed)
RNA 1: CACCCGUGCAAAAAUGCAGGGGUCUAAAACUGAGCGGAUAACCUCUCUAUGG
RNA 2: GGGAAUGGAUCCACAUCUACGAAUUCCCUCCAUAGAGAGGUUAUCCGCUCAAAUAGAUCGGAAGAGCACACGU
B4: target 1 MT 5'PFS GAC 3'PFS UUU (mixed)
RNA 1: CACCCGUGCAAAAAUGCAGGGGUCUAAAACUGAGCGGAUAACCUCUCUAUGG
RNA 2: GGGAAUGGAUCCACAUCUACGAAUUCGACCCAUAGAGAGGUUAUCCGCUCAUUUAGAUCGGAAGAGCACACGU
B5: target 1 insG 3' of 10,insA 3' of 7 (mixed)
RNA 1: CACCCGUGCAAAAAUGCAGGGGUCUAAAACUGAGCGGAUAACCUCUCUAUGG
RNA 2: GGGAAUGGAUCCACAUCUACGAAUUCGUACCAUAGAGAGGUUGAUCACGCUCACCGAGAUCGGAAGAGCACACGU
B6: target 1 MT 5'PFS GGA 3'PFS UCC (mixed)
RNA 1: CACCCGUGCAAAAAUGCAGGGGUCUAAAACUGAGCGGAUAACCUCUCUAUGG
RNA 2: GGGAAUGGAUCCACAUCUACGAAUUCGGACCAUAGAGAGGUUAUCCGCUCAUCCAGAUCGGAAGAGCACACGU
B7: target 1 MT 5'PFS CAU 3'PFS CUU (mixed)
RNA 1: CACCCGUGCAAAAAUGCAGGGGUCUAAAACUGAGCGGAUAACCUCUCUAUGG
RNA 2: GGGAAUGGAUCCACAUCUACGAAUUCCAUCCAUAGAGAGGUUAUCCGCUCACUUAGAUCGGAAGAGCACACGU
B8: target 1 MT 5'PFS GUG 3'PFS AAU (mixed)
RNA 1: CACCCGUGCAAAAAUGCAGGGGUCUAAAACUGAGCGGAUAACCUCUCUAUGG
RNA 2: GGGAAUGGAUCCACAUCUACGAAUUCGUGCCAUAGAGAGGUUAUCCGCUCAAAUAGAUCGGAAGAGCACACGU
B9: target 1 MT 5'PFS GGA 3'PFS UCU (mixed)
RNA 1: CACCCGUGCAAAAAUGCAGGGGUCUAAAACUGAGCGGAUAACCUCUCUAUGG
RNA 2: GGGAAUGGAUCCACAUCUACGAAUUCGGACCAUAGAGAGGUUAUCCGCUCAUCUAGAUCGGAAGAGCACACGU
B10: target 1 MT 5'PFS GAC 3'PFS UUA (mixed)
RNA 1: CACCCGUGCAAAAAUGCAGGGGUCUAAAACUGAGCGGAUAACCUCUCUAUGG
RNA 2: GGGAAUGGAUCCACAUCUACGAAUUCGACCCAUAGAGAGGUUAUCCGCUCAUUAAGAUCGGAAGAGCACACGU
B11: target 1 MT 5'PFS GGA 3'PFS UCA (mixed)
RNA 1: CACCCGUGCAAAAAUGCAGGGGUCUAAAACUGAGCGGAUAACCUCUCUAUGG
RNA 2: GGGAAUGGAUCCACAUCUACGAAUUCGGACCAUAGAGAGGUUAUCCGCUCAUCAAGAUCGGAAGAGCACACGU
B12: target 1 MT 5'PFS GUU 3'PFS CUU (mixed)
RNA 1: CACCCGUGCAAAAAUGCAGGGGUCUAAAACUGAGCGGAUAACCUCUCUAUGG
RNA 2: GGGAAUGGAUCCACAUCUACGAAUUCGUUCCAUAGAGAGGUUAUCCGCUCACUUAGAUCGGAAGAGCACACGU
B13: target 1 MT 5'PFS GAC 3'PFS UUC (mixed)
RNA 1: CACCCGUGCAAAAAUGCAGGGGUCUAAAACUGAGCGGAUAACCUCUCUAUGG
RNA 2: GGGAAUGGAUCCACAUCUACGAAUUCGACCCAUAGAGAGGUUAUCCGCUCAUUCAGAUCGGAAGAGCACACGU
B14: target 1 MT 5'PFS GGA 3'PFS UCG (mixed)
RNA 1: CACCCGUGCAAAAAUGCAGGGGUCUAAAACUGAGCGGAUAACCUCUCUAUGG
RNA 2: GGGAAUGGAUCCACAUCUACGAAUUCGGACCAUAGAGAGGUUAUCCGCUCAUCGAGAUCGGAAGAGCACACGU
B15: target 1 MT 5'PFS UAA 3'PFS UCG (mixed)
RNA 1: CACCCGUGCAAAAAUGCAGGGGUCUAAAACUGAGCGGAUAACCUCUCUAUGG
RNA 2: GGGAAUGGAUCCACAUCUACGAAUUCUAACCAUAGAGAGGUUAUCCGCUCAUCGAGAUCGGAAGAGCACACGU
B16: target 1 MT 5'PFS GAC 3'PFS UUG (mixed)
RNA 1: CACCCGUGCAAAAAUGCAGGGGUCUAAAACUGAGCGGAUAACCUCUCUAUGG
RNA 2: GGGAAUGGAUCCACAUCUACGAAUUCGACCCAUAGAGAGGUUAUCCGCUCAUUGAGAUCGGAAGAGCACACGU
B17: target 1 MT 5'PFS AGG 3'PFS UUG (mixed)
RNA 1: CACCCGUGCAAAAAUGCAGGGGUCUAAAACUGAGCGGAUAACCUCUCUAUGG
RNA 2: GGGAAUGGAUCCACAUCUACGAAUUCAGGCCAUAGAGAGGUUAUCCGCUCAUUGAGAUCGGAAGAGCACACGU
B18: target 1 MT 5'PFS CAA 3'PFS UCG (mixed)
RNA 1: CACCCGUGCAAAAAUGCAGGGGUCUAAAACUGAGCGGAUAACCUCUCUAUGG
RNA 2: GGGAAUGGAUCCACAUCUACGAAUUCCAACCAUAGAGAGGUUAUCCGCUCAUCGAGAUCGGAAGAGCACACGU
B19: target 1 MT 5'PFS CCA 3'PFS CUA (mixed)
RNA 1: CACCCGUGCAAAAAUGCAGGGGUCUAAAACUGAGCGGAUAACCUCUCUAUGG
RNA 2: GGGAAUGGAUCCACAUCUACGAAUUCCCACCAUAGAGAGGUUAUCCGCUCACUAAGAUCGGAAGAGCACACGU
B20: target 1 MT 5'PFS GGA 3'PFS CUA (mixed)
RNA 1: CACCCGUGCAAAAAUGCAGGGGUCUAAAACUGAGCGGAUAACCUCUCUAUGG
RNA 2: GGGAAUGGAUCCACAUCUACGAAUUCGGACCAUAGAGAGGUUAUCCGCUCACUAAGAUCGGAAGAGCACACGU
B21: target 1 MT 5'PFS CAG 3'PFS CGU (mixed)
RNA 1: CACCCGUGCAAAAAUGCAGGGGUCUAAAACUGAGCGGAUAACCUCUCUAUGG
RNA 2: GGGAAUGGAUCCACAUCUACGAAUUCCAGCCAUAGAGAGGUUAUCCGCUCACGUAGAUCGGAAGAGCACACGU
B22: target 1 MT 5'PFS GUG 3'PFS AAA (mixed)
RNA 1: CACCCGUGCAAAAAUGCAGGGGUCUAAAACUGAGCGGAUAACCUCUCUAUGG
RNA 2: GGGAAUGGAUCCACAUCUACGAAUUCGUGCCAUAGAGAGGUUAUCCGCUCAAAAAGAUCGGAAGAGCACACGU
B23: target 1 MT 5'PFS ACA 3'PFS UAC (mixed)
RNA 1: CACCCGUGCAAAAAUGCAGGGGUCUAAAACUGAGCGGAUAACCUCUCUAUGG
RNA 2: GGGAAUGGAUCCACAUCUACGAAUUCACACCAUAGAGAGGUUAUCCGCUCAUACAGAUCGGAAGAGCACACGU
B24: target 1 G15C,A16U (mixed)
RNA 1: CACCCGUGCAAAAAUGCAGGGGUCUAAAACUGAGCGGAUAACCUCUCUAUGG
RNA 2: GGGAAUGGAUCCACAUCUACGAAUUCGUACCAUAGUCAGGUUAUCCGCUCACCGAGAUCGGAAGAGCACACGU
B25: target 1 MT 5'PFS AGG 3'PFS UUC (mixed)
RNA 1: CACCCGUGCAAAAAUGCAGGGGUCUAAAACUGAGCGGAUAACCUCUCUAUGG
RNA 2: GGGAAUGGAUCCACAUCUACGAAUUCAGGCCAUAGAGAGGUUAUCCGCUCAUUCAGAUCGGAAGAGCACACGU
B26: target 1 MT 5'PFS GUG 3'PFS AAC (mixed)
RNA 1: CACCCGUGCAAAAAUGCAGGGGUCUAAAACUGAGCGGAUAACCUCUCUAUGG
RNA 2: GGGAAUGGAUCCACAUCUACGAAUUCGUGCCAUAGAGAGGUUAUCCGCUCAAACAGAUCGGAAGAGCACACGU
B27: target 1 MT 5'PFS GUG 3'PFS AAG (mixed)
RNA 1: CACCCGUGCAAAAAUGCAGGGGUCUAAAACUGAGCGGAUAACCUCUCUAUGG
RNA 2: GGGAAUGGAUCCACAUCUACGAAUUCGUGCCAUAGAGAGGUUAUCCGCUCAAAGAGAUCGGAAGAGCACACGU

This series concerns the target T1, EsCas13d, nuclease-dead (Eubacterium siraeum, UniProt B0MS50, R295A;H300A;R849A;H854A).
T1 sequence: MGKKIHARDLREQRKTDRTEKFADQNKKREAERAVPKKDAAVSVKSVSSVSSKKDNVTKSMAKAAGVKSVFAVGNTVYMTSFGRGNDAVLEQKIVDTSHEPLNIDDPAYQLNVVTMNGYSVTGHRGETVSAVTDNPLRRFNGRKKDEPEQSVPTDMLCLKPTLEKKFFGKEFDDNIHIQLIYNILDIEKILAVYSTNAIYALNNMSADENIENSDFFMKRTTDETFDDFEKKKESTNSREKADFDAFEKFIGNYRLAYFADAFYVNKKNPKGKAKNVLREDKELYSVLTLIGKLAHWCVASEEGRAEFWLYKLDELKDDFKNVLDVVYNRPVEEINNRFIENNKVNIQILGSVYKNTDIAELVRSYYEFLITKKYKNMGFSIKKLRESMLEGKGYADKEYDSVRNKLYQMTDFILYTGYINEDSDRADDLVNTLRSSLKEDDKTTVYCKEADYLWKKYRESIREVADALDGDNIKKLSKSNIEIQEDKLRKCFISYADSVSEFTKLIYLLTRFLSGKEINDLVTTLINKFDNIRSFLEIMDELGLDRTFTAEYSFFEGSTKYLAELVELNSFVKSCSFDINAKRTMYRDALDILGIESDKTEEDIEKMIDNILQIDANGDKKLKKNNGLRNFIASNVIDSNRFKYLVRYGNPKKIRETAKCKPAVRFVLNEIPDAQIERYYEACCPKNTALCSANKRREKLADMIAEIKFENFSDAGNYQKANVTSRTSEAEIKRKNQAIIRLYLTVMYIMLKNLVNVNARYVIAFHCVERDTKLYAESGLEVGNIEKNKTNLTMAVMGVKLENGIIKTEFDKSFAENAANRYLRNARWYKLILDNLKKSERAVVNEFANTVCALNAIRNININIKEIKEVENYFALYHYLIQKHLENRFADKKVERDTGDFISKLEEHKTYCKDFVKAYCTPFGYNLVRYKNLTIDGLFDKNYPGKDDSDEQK
The experiment in a line: crRNA (strand 1, pre-loaded); Mg2+; 40 mM Tris-HCl pH 7.5, 150 mM NaCl, 6 mM MgCl2, 1 mM DTT, 0.1% Tween-20, 0.2 mg/ml BSA; 25 C; 10 min per concentration, then washed. Particulars: tags: His6-TwinStrep-SUMO cleaved; N-terminal SNAP kept (SNAP-Surface 488); label: 3' end held by stalled T7 RNA polymerase.
Take B1: the Kd came out at 47 ± 3.5 nM.

B2 showed a Kd of 47 ± 17.5 nM.

Consider B3, for which binding was put at a Kd of 16.7 ± 4.65 nM.

In the case of B4, the Kd is 11 ± 4.5 nM.

Molecule B5 registered a Kd of 15.3 ± 0.6 nM.

On to B6, for which the Kd was determined as 23 ± 7 nM. Compared with the last molecule, the Kd is about 1.5-fold higher.

Turning to B7, the Kd is roughly 48.5 nM.

As to B8, the Kd is 22.1 ± 1.75 nM.

B9 returned a Kd of 13.5 ± 2.5 nM.

B10: the equilibrium dissociation constant (Kd) stood at 13.2 ± 4.3 nM.

As for B11, the Kd turned out to be 17.9 ± 5.7 nM.

B12 had a Kd of 16.4 ± 3.1 nM.

In the case of B13, binding was characterised by a dissociation constant (Kd) of 14.1 ± 4.25 nM.

B14 had a dissociation constant (Kd) of 10.8 ± 1.2 nM.

B15 registered a Kd of 23 ± 6.5 nM.

With B16, binding was put at a Kd of 14.5 ± 4 nM.

Turning to B17, the affinity, expressed as Kd, was 40.5 ± 9.5 nM.

Consider B18, for which binding was put at a Kd of 12.2 ± 3.6 nM.

In turn, B19 came in with a Kd of 2.5 ± 0.8 nM.

In turn, B20 registered a Kd of 27 ± 6.5 nM.

For B21, the dissociation constant (Kd) amounted to 29.5 ± 10 nM.

B22 showed a Kd of 30.3 ± 2.5 nM.

On to B23, for which the Kd came out at 25.5 ± 11 nM.

B24 came in with a Kd of 47 ± 4 nM.

With B25, the affinity, expressed as Kd, was 33 ± 11 nM.

Molecule B26 displayed a Kd of 23.9 ± 2.9 nM.

With B27, binding was put at a Kd of 23.1 ± 1.45 nM.
